Read-outs that look alike come from different tables or passages of the source.
Experiments:
[1] = biological target: T1, Na-Cl co-transporter (NCC) (Mus musculus, UniProt P59158)
T1 chain: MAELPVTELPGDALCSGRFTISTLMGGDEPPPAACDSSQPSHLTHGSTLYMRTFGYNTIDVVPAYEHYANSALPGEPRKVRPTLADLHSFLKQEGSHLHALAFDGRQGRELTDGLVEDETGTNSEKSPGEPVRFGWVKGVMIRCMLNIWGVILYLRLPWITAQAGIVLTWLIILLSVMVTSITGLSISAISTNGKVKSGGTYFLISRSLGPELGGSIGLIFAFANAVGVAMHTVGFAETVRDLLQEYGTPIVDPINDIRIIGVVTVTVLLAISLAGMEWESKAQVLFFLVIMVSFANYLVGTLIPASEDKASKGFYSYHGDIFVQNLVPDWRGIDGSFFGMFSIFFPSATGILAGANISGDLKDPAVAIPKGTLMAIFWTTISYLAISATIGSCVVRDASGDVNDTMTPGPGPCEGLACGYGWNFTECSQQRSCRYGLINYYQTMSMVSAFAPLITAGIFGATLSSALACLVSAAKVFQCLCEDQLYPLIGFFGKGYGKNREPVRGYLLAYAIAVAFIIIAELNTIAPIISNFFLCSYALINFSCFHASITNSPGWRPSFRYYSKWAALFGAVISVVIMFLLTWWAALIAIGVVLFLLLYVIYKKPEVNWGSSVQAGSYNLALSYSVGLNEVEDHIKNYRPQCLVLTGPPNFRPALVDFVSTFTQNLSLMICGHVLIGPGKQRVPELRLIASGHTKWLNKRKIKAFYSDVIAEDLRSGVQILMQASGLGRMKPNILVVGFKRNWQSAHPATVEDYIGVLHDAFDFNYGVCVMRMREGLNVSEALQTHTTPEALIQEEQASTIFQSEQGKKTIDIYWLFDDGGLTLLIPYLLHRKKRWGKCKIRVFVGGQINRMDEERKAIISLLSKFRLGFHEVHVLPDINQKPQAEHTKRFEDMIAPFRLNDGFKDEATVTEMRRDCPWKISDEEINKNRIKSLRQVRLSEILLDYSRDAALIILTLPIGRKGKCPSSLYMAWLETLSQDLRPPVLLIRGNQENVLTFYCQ

[2] = biological target: T1, Na-Cl co-transporter (NCC); experiment: FITC-IL18 binding to NCC-transfected COS-7 cell membranes, Scatchard analysis

Kd [1]: 21.4 nM | Kd [2]: 17.3 nM
B1: IL-18 (protein)
chain: NFGRLHCTTAVIRNINDQVLFVDKRQPVFEDMTDIDQSASEPQTRLIIYMYKDSEVRGLAVTLSVKDSKMSTLSCKNKIISFEEMDPPENIDDIQSDLIFFQKRVPGHNKMEFESSLYEGHFLACQKEDDAFKLILKKKDENGDKSVMFTLTNLHQS
modifications: FITC-conjugated IL18

— PMC4554539 (2016)
